# Measured values published in publication PMC2937569 (Biochemistry, 2010).
# How the values were obtained:
# [1] = biological target: the molecule itself; test: velocity sedimentation on a sucrose gradient
# [2] = biological target: the molecule itself; test: non-reducing SDS-PAGE/Western blot
Protein,stoichiometry N [1],stoichiometry N [2]
"wild-type (WT) RDS (retinal degeneration slow; Peripherin/rds), recombinant in COS-1 cells (natural protein, murine, UniProt P15499 1-346, looked up) MALLKVKFDQKKRVKLAQGLWLMNWLSVLAGIVLFSLGLFLKIELRKRSEVMNNSESHFVPNSLIGVGVLSCVFNSLAGKICYDALDPAKYAKWKPWLKPYLAVCIFFNVILFLVALCCFLLRGSLESTLAYGLKNGMKYYRDTDTPGRCFMKKTIDMLQIEFKCCGNNGFRDWFEIQWISNRYLDFSSKEVKDRIKSNVDGRYLVDGVPFSCCNPSSPRPCIQYQLTNNSAHYSYDHQTEELNLWLRGCRAALLNYYSSLMNSMGVVTLLVWLFEVSITAGLRYLHTALESVSNPEDPECESEGWLLEKSVPETWKAFLESFKKLGKSNQVEAEGADAGPAPEAG",4,2
"N244H RDS, recombinant in COS-1 cells (natural protein, murine, UniProt P15499 1-346, looked up) MALLKVKFDQKKRVKLAQGLWLMNWLSVLAGIVLFSLGLFLKIELRKRSEVMNNSESHFVPNSLIGVGVLSCVFNSLAGKICYDALDPAKYAKWKPWLKPYLAVCIFFNVILFLVALCCFLLRGSLESTLAYGLKNGMKYYRDTDTPGRCFMKKTIDMLQIEFKCCGNNGFRDWFEIQWISNRYLDFSSKEVKDRIKSNVDGRYLVDGVPFSCCNPSSPRPCIQYQLTNNSAHYSYDHQTEELHLWLRGCRAALLNYYSSLMNSMGVVTLLVWLFEVSITAGLRYLHTALESVSNPEDPECESEGWLLEKSVPETWKAFLESFKKLGKSNQVEAEGADAGPAPEAG",4,2
"N244K RDS, recombinant in COS-1 cells (natural protein, murine, UniProt P15499 1-346, looked up) MALLKVKFDQKKRVKLAQGLWLMNWLSVLAGIVLFSLGLFLKIELRKRSEVMNNSESHFVPNSLIGVGVLSCVFNSLAGKICYDALDPAKYAKWKPWLKPYLAVCIFFNVILFLVALCCFLLRGSLESTLAYGLKNGMKYYRDTDTPGRCFMKKTIDMLQIEFKCCGNNGFRDWFEIQWISNRYLDFSSKEVKDRIKSNVDGRYLVDGVPFSCCNPSSPRPCIQYQLTNNSAHYSYDHQTEELKLWLRGCRAALLNYYSSLMNSMGVVTLLVWLFEVSITAGLRYLHTALESVSNPEDPECESEGWLLEKSVPETWKAFLESFKKLGKSNQVEAEGADAGPAPEAG",4,
